The text below walks through data of IntAct's records for PubMed 19088199.

B1: Indoleamine 2,3-dioxygenase 1 (Mus musculus), P28776 (parent)
chain: MALSKISPTEGSRRILEDHHIDEDVGFALPHPLVELPDAYSPWVLVARNLPVLIENGQLREEVEKLPTLSTDGLRGHRLQRLAHLALGYITMAYVWNRGDDDVRKVLPRNIAVPYCELSEKLGLPPILSYADCVLANWKKKDPNGPMTYENMDILFSFPGGDCDKGFFLVSLLVEIAASPAIKAIPTVSSAVERQDLKALEKALHDIATSLEKAKEIFKRMRDFVDPDTFFHVLRIYLSGWKCSSKLPEGLLYEGVWDTPKMFSGGSAGQSSIFQSLDVLLGIKHEAGKESPAEFLQEMREYMPPAHRNFLFFLESAPPVREFVISRHNEDLTKAYNECVNGLVSVRKFHLAIVDTYIMKPSKKKPTDGDKSEEPSNVESRGTGGTNPMTFLRSVKDTTEKALLSWP

Variants of B1 are the subject of this test. To be noted: with socs3_mouse Socs3, O35718.
socs3_mouse Socs3, O35718, sequence (O35718 whole entry): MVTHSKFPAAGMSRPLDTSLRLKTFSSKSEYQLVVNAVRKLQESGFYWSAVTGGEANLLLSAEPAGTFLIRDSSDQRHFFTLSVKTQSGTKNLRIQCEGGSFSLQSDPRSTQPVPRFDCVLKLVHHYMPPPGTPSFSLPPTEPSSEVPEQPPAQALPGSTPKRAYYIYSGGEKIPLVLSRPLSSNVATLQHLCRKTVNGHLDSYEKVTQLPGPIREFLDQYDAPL
Y115F;Y253F: the “effect of a mutation on the interaction” value is “disrupting interaction”.
